# Fewer inactive variants are shown than the library holds.
# B1: TPR 5TU (parent)
# chain: GGAUCUUCUCGAUCUAACAAAAAAGACAAAUCUGCCACAAAGCUUGAGAGCAUCUUCGGAUGCAGAGGCGGCAGCCUUCGGUGGCGCGAUAGCGCCAACGUUCUCAACUAUGACACGCAAAACGCGUGCUCCGUUGAAUGGAGUUUAUCAUG
# Variants of: B1
# Experiment: polymerase ribozyme fitness, log enrichment relative to wild type (log ratio); higher = more active; in vitro selection for triplet polymerase activity
# In short: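 Input and output libraries were sequenced on Illumina after a single in vitro selection round, run in triplicate on PCR-built, transcribed mutant libraries of each subunit of a heterodimeric triplet polymerase ribozyme. Selection annealed libraries to a biotinylated primer, the partner subunit and triplets, incubated them frozen at −7 °C, then gel-excised extended constructs for streptavidin-bead capture and RT-PCR. Genotypes with ≥10 input reads and ≥1 read per output were kept. Fitness is the logarithm, taken in base 2, of genotype enrichment divided by wild-type enrichment, using inverse-variance-weighted replicate averages.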
row,Variant,polymerase ribozyme fitness (log ratio)
1,GGAUCUUCUCGAUCUAACAAAAAAGACAAAUCUGCCACAAAGCUUGAGAGCAUCUUCGCAUGCAGAGGCGGCGGCCUUCGGUGGAGCGAUAGCGCCAACGUUCUCAACUAUGACACGCAAAACGCGUGCUCCGUUGAAUGGAGUUUAUCAUG [G59C A73G C85A],-2.84
2,GGAUCUUCUCGAUCUAACAAAAAAGACAAAUCUGCCACAAAGCUUGAGAGCAUCUUCGCAUGCAGAGGCGGCAGCCUUCGGUGGCGCGAUAGCGCCAACGUUCUCAACUAUGACACGCAAAACGCGUGCUCCGUUGAGUGGAGUUUAUCAUG [G59C A138G],-3.04
3,GGAUCUUCUCGAUCUAACAAAAAAGACAAAUCUGCCACAAAGCUUGAGAGCAUCUUCGCAUGCAGAGGCGGCAGCCUUCGGUGGCGUGAUAGCGCCAACGUGCUCAACUAUGACACGCAAAACGCGUGCUCUGUUGAAUGGAGUGUAUCAUG [G59C C87U U102G C132U U145G],≤ -4.2
4,GGAUCUUCUCGAUCUAACAAAAAAGACAAAUCUGCCACAAAGCUUGAGAGCAUCUUCGAAUGCAGAGGCGGCAGCCUUCGGUGGCGCGAUACCGCCAACGUUCUCAACUAUGACACGCAAAACGCGUGCUCCGUUGAAUGGAGUUUAUCAUG [G59A G92C],-2.78
5,GGAUCUUCUCGAUCUAACAAAAAAGACAAAUCUGCCACAAAGCUUGAGAGCAUCUUCGCGUGCAGAGGCGGCAGCCUUCGGUGGAGCGAUAGCGCCAACGUUCUCAACUAUGACACGCAAAACGCGUGCUCCGUUGAAUGGAGUUUAUCAUG [G59C A60G C85A],-1.88
6,GGAUCUUCUCGAUCUAACAAAAAAGACAAAUCUGCCACAAAGCUUGAGAGCAUCUUCGAAUGCAGAGGCGGCAGCCUUCGGUGGCGCGAUAGCUACAACGUUCCCAACUAUGACACGCAAAACGCGUGCUCCGUUGAAUGGAGUUUAUCAUG [G59A G94U C95A U104C],-2.63
7,GGAUCUUCUCGAUCUAACAAAAAAGACAAAUCUGCCACAAAGCUUGAGAGCAUCUUCGCAUGCAGAGGCGGCAGUCUUCGGUGGCGCGAUAGCGCCAUCGUUCUCAACUAUGACACGCAAAACGCGUGCUCCGUUGAAUGGAGUUUAUCAUG [G59C C75U A98U],-0.152
8,GGAUCUUCUCGAUCUAACAAAAAAGACAAAUCUGCCACAAAGCUUGAGAGCAUCUUCGAAUGCAGAGGCGGCAGCCUUCGGUGGCGCGAUAGCACCAACGUUCUCAACUAUGACACGCAAAACGCGUGCUCCGUUGAAUGGAGUUUAUCAUG [G59A G94A],-0.522
9,GGAUCUUCUCGAUCUAACAAAAAAGACAAAUCUGCCACAAAGCUUGAGAGCAUCUUCGAAUACAGAGGCGGCAGCCUUCGGUGGCUCGAUAGCGCCAACGUUCUCACCUAUGACACGCAAAACGCGUGCUCCGUUGAAUGGAGUUUAUCAUG [G59A G62A G86U A107C],≤ -4.2
10,GGAUCUUCUCGAUCUAACAAAAAAGACAAAUCUGCCACAAAGCUUGAGAGCAUCUUCGAAUGCAGAGGCGGCAGCCUUCGGUGGGGCGAUAGCGCCAAUGUUCUCAACUAUGACACGCAGAACGCGUGCUCCGUUGAAUGGAGUUUAUCAUG [G59A C85G C99U A120G],≤ -4.2
11,GGAUCUUCUCGAUCUAACAAAAAAGACAAAUCUGCCACAAAGCUUGAGAGCAUCUUCGCAUGCAGAGGCGGCAGCCUUCGGUGGGGCGUUAACGCCAACGUUCUCAACUAUGACACGCAAAACGCGUGCUCCGUUGAAUGGAGUUUAUCAUG [G59C C85G A89U G92A],≤ -4.2
12,GGAUCUUCUCGAUCUAACAAAAAAGACAAAUCUGCCACAAAGCUUGAGAGCAUCUUCGAAUGCAGAGGCGGCAGCCUUCGGUGGCGCGAUAGCGCCAACGUUCUCAACUAUGACACGCAAAACGCGUGCUCCUUUCAAUGGAGUUUACCAUG [G59A G133U G136C U148C],≤ -4.2
13,GGAUCUUCUCGAUCUAACAAAAAAGACAAAUCUGCCACAAAGCUUGAGAGCAUCUUCGCAUGCAGAGGCGGCAGCCUUCGGUGGCGAGAUAGCGCCAACGCUCUCAACUAUGACACGCAAAACGCGUGCUCCGUUGAAUGUAGUUUUUCAUG [G59C C87A U101C G141U A147U],≤ -4.2
14,GGAUCUUCUCGAUCUAACAAAAAAGACAAAUCUGCCACAAAGCUUGAGAGCAUCUUCGCAUGCAGAGGCGGCAGCAUUCGGUGGCGGGAUAGCGCCAACGUUCUCAACUAUGACACGCAAAACGCGUGCUCCGUUGAAUGGAGUUUAUCAUG [G59C C76A C87G],≤ -4.2
15,GGAUCUUCUCGAUCUAACAAAAAAGACAAAUCUGCCACAAAGCUUGAGAGCAUCUUCGAACGCAGAGGCGGCAGCCUUCGGUGGCGCGAUAGCGCCAACGUUCUCAACUAUGACACGCAAAACGCGUGCUCCGUUGAAUGGAGUUUAUCAUG [G59A U61C],-0.735
16,GGAUCUUCUCGAUCUAACAAAAAAGACAAAUCUGCCACAAAGCUUGAGAGCAUCUUCGCUUGCAGAGACGGCAGACUUCGGUGGCGCGAUAGCGCCAACGUUCUCAAAUAUGACACGCAAAACGCGUGCUCCGUUGAAUGGAGUUUAUCAUG [G59C A60U G68A C75A C108A],-4.15
17,GGAUCUUCUCGAUCUAACAAAAAAGACAAAUCUGCCACAAAGCUUGAGAGCAUCUUCGCAUGCAGAGGCGGCAGCCUUCGGUGGCGGGAUAGCGCCAACGUUCUCAACUAUGACACGCAAAACGCGUGCUCCGUUGAAUGGAGUUUAUCAUG [G59C C87G],≤ -4.2
18,GGAUCUUCUCGAUCUAACAAAAAAGACAAAUCUGCCACAAAGCUUGAGAGCAUCUUCGCAUGCAGAGGCGGCAGCCUUCGGUGGGGCGAUAGCGCCAACGUUCUCAACUAUGACACGCAAAACGCGUGCUCCGUUGAAUGGAGUUUAUCAUG [G59C C85G],-1.64
19,GGAUCUUCUCGAUCUAACAAAAAAGACAAAUCUGCCACAAAGCUUGAGAGCAUCUUCGAAUGCAGAGGCGGCAGCCUUCGGUGGCGCGAUAGCGCCAACCUUCUCAACUAUGACACGCAAAACGCGUGCUCCGUUGAAUGGAGUUUAUCAUG [G59A G100C],≤ -4.2
